Test results taken from article PMC6442233, “SAR and molecular mechanism studies of monoamine oxidase inhibition by selected chalcone analogs” (Journal of Enzyme Inhibition and Medicinal Chemistry, 2019).

What was measured:
[1] = substrate: CN1CC=C(c2cccn2C)CC1; test: Spectrophotometric MAO-B assay with MMTP as substrate; format: biochemical, human; details: other: MMTP as substrate; 37.0 °C
[2] = substrate: CN1CC=C(c2cccn2C)CC1; test: Spectrophotometric MAO-A assay with MMTP as substrate; format: biochemical, human; details: other: MMTP as substrate; 37.0 °C

Protein | Km [1] [µM] | Km [2] [µM]
human MAO-B (Homo sapiens) (protein, purchased Sigma-Aldrich) MSNKCDVVVVGGGISGMAAAKLLHDSGLNVVVLEARDRVGGRTYTLRNQKVKYVDLGGSYVGPTQNRILRLAKELGLETYKVNEVERLIHHVKGKSYPFRGPFPPVWNPITYLDHNNFWRTMDDMGREIPSDAPWKAPLAEEWDNMTMKELLDKLCWTESAKQLATLFVNLCVTAETHEVSALWFLWYVKQCGGTTRIISTTNGGQERKFVGGSGQVSERIMDLLGDRVKLERPVIYIDQTRENVLVETLNHEMYEAKYVISAIPPTLGMKIHFNPPLPMMRNQMITRVPLGSVIKCIVYYKEPFWRKKDYCGTMIIDGEEAPVAYTLDDTKPEGNYAAIMGFILAHKARKLARLTKEERLKKLCELYAKVLGSLEALEPVHYEEKNWCEEQYSGGCYTTYFPPGILTQYGRVLRQPVDRIYFAGTETATHWSGYMEGAVEAGERAAREILHAMGKIPEDEIWQSEPESVDVPAQPITTTFLERHLPSVPGLLRLIGLTTIFSATALGFLAHKRGLLVRV | 101 | –
human MAO-A (Homo sapiens) (protein, purchased Sigma-Aldrich) MENQEKASIAGHMFDVVVIGGGISGLSAAKLLTEYGVSVLVLEARDRVGGRTYTIRNEHVDYVDVGGAYVGPTQNRILRLSKELGIETYKVNVSERLVQYVKGKTYPFRGAFPPVWNPIAYLDYNNLWRTIDNMGKEIPTDAPWEAQHADKWDKMTMKELIDKICWTKTARRFAYLFVNINVTSEPHEVSALWFLWYVKQCGGTTRIFSVTNGGQERKFVGGSGQVSERIMDLLGDQVKLNHPVTHVDQSSDNIIIETLNHEHYECKYVINAIPPTLTAKIHFRPELPAERNQLIQRLPMGAVIKCMMYYKEAFWKKKDYCGCMIIEDEDAPISITLDDTKPDGSLPAIMGFILARKADRLAKLHKEIRKKKICELYAKVLGSQEALHPVHYEEKNWCEEQYSGGCYTAYFPPGIMTQYGRVIRQPVGRIFFAGTETATKWSGYMEGAVEAGERAAREVLNGLGKVTEKDIWVQEPESKDVPAVEITHTFWERNLPSVSGLLKIIGFSTSVTALGFVLYKYKLLPRS | – | 88
